{
  "source": "patent US20260097101",
  "proteins": {"B1": {"name": "purified porcine DPP-4 (dipeptidyl peptidase-4) (protein)", "chain": "DSRRTYTLTDYLKSTFRVKFYTLQWISDHEYLYKQENNILLFNAEYGNSSIFLENSTFDELGYSTNDYSVSPDRQFILFEYNYVKQWRHSYTASYDIYDLNKRQLITEERIPNNTQWITWSPVGHKLAYVWNNDIYVKNEPNLSSQRITWTGKENVIYNGVTDWVYEEEVFSAYSALWWSPNGTFLAYAQFNDTEVPLIEYSFYSDESLQYPKTVRIPYPKAGAENPTVKFFVVDTRTLSPNASVTSYQIVPPASVLIGDHYLCGVTWVTEERISLQWIRRAQNYSIIDICDYDESTGRWISSVARQHIEISTTGWVGRFRPAEPHFTSDGNSFYKIISNEEGYKHICHFQTDKSNCTFITKGAWEVIGIEALTSDYLYYISNEHKGMPGGRNLYRIQLNDYTKVTCLSCELNPERCQYYSASFSNKAKYYQLRCFGPGLPLYTLHSSSSDKELRVLEDNSALDKMLQDVQMPSKKLDVINLHGTKFWYQMILPPHFDKSKKYPLLIEVYAGPCSQKVDTVFRLSWATYLASTENIIVASFDGRGSGYQGDKIMHAINRRLGTFEVEDQIEATRQFSKMGFVDDKRIAIWGWSYGGYVTSMVLGAGSGVFKCGIAVAPVSKWEYYDSVYTERYMGLPTPEDNLDYYRNSTVMSRAENFKQVEYLLIHGTADDNVHFQQSAQLSKALVDAGVDFQTMWYTDEDHGIASNMAHQHIYTHMSHFLKQCFSLP"}},
  "key": {"[1]": {"target": "Native pancreatic polypeptide (PP)"}},
  "data": [
    {"protein": "B1", "values": [
      {"measurement": "DPP-4 stability (degradation by purified DPP-4, 5 mU, 0-8 h; RP-HPLC and MALDI-ToF)", "setting": "[1]", "result": "<2", "unit": "h"},
      {"measurement": "DPP-4 stability (degradation by purified DPP-4, 5 mU, 0-8 h; RP-HPLC and MALDI-ToF)", "setting": "[P^3]PP", "result": ">8", "unit": "h"}
    ]}
  ]
}
